The values below come from paper PMC3834833 (Nucleic Acids Research, 2013).

Values joined by “and” are separate entries in the source; they are usually repeats but may differ in a detail not shown here. Equal entries are not always repeated.

Data set [1] deals with the molecule itself. The experiment in a line: glycerol gradient centrifugation; 10 ml linear 20-40% (v/v) glycerol gradient, 10 mM Tris-HCl pH 8.0, 100 mM NaCl, 1 mM EDTA, 2 mM DTT; SW-41 rotor, 38 000 rpm, 24 h, 8°C; fractions by SDS-PAGE and Coomassie; S value and molecular weight by comparison with protein markers; major oligomeric state.
In a further data set the target is translin (wild type) (Homo sapiens, UniProt Q15631 1-228). Briefly: SAXS; translin octamer:RNA 1:1.5; Rg 47.2 vs 48.4 A free; SAXS: 10 mM Tris-HCl pH 8.0, 100 mM NaCl, 0.1 mM EDTA, 1 mM DTT, 5% glycerol; complex incubated 20 min at 25 C, measured at 10 C. The settings on record: protein: recombinant; tags: N-terminal His6 (pQE-9); chain copies: 8; single strand.

B1: translin variant Nt-1 (I6A/F7A) (natural protein, human, UniProt Q15631 1-228, looked up)
chain: MSVSEAAVELQGFLAAEQDIREEIRKVVQSLEQTAREILTLLQGVHQGAGFQDIPKRCLKAREHFGTVKTHLTSLKTKFPAEQYYRFHEHWRFVLQRLVFLAAFVVYLETETLVTREAVTEILGIEPDREKGFHLDVEDYLSGVLILASELSRLSVNSVTAGDYSRPLHISTFINELDSGFRLLNLKNDSLRKRYDGLKYDVKKVEEVVYDLSIRGFNKETAAACVEK
notes: translin, human; mutant of the pQE-9 translin plasmid made by QuikChange site-directed mutagenesis; Same construct as m1 with the stated substitutions; also called N-terminal 1; source: E. coli, purified
On to B1, for which the “stoichiometry N” value in data set [1] is 4 subunits and 3.9 subunits.

On to GUGUGUGUGUGUGUGUGUGUGUGU (ssRNA) [(GU)12], for which the binding result with translin (wild type) was “binds”.
